Paper PMC11618457
Like-named read-outs stand apart in the source and are kept apart here.

How the values were obtained:
Experiment in all cases: smFRET
Zur(Zn) Cy5-C113 [1] = target: T1, Zur(Zn) Cy5-C113 (Escherichia coli, UniProt P0AC51 1-171, C17S;C152S;C158S)
T1 sequence: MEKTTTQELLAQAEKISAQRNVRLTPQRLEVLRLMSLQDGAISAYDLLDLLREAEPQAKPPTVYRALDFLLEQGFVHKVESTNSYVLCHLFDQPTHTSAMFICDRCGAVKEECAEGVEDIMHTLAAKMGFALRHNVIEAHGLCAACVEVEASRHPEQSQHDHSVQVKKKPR

Zur(Zn) D49A Cy5-C113 [2] = target: T2, Zur(Zn) D49A Cy5-C113 (Escherichia coli, UniProt P0AC51 1-171, C17S;D49A;C152S;C158S)
T2 sequence: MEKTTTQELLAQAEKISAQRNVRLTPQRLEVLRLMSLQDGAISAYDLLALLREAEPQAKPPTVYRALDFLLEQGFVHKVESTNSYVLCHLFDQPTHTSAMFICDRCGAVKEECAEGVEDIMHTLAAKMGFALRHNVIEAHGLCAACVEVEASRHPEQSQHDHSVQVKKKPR

Zur(Zn) Cy5-C113 [3] = target: T1, Zur(Zn) Cy5-C113; remark: listed apart in the source
Zur(Zn) Cy5-C158 = target: T3, Zur(Zn) Cy5-C158 (Escherichia coli, UniProt P0AC51 1-171, C17S;C113S;C152S)
T3 sequence: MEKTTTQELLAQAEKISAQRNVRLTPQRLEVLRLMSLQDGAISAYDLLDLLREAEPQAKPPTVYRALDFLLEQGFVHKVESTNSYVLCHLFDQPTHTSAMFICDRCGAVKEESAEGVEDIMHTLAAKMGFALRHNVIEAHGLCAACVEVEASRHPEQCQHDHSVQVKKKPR

Zur(Zn) D49A Cy5-C113 [4] = target: T2, Zur(Zn) D49A Cy5-C113; remark: listed apart in the source

Binder | binding result (Zur(Zn) Cy5-C113 [1]) | binding result (Zur(Zn) D49A Cy5-C113 [2]) | binding result (Zur(Zn) Cy5-C113 [3]) | binding result (Zur(Zn) Cy5-C158) | binding result (Zur(Zn) D49A Cy5-C113 [4])
31-bp znuCB promoter DNA (dsDNA) DNA 1: AGAAGTGTGATATTATAACATTTCATGACTA DNA 2: TAGTCATGAAATGTTATAATATCACACTTCT | binds | binds |  |  | 
22-bp truncated znuCB DNA (one dyad) (dsDNA) DNA 1: AGAAGTGTGATATTATAACATT DNA 2: AATGTTATAATATCACACTTCT |  |  | binds | binds | binds
